Experiment: yeast display, Sf9 membrane polyspecificity reagent, FACS + sequencing; frameworks hold sequencing errors
Procedure, shortened: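 Synthetic nanobody libraries on Saccharomyces cerevisiae BJ5465 were galactose-induced for 36–48 hours, stained 1 hour at 4 °C with 10% biotinylated, detergent-solubilized Sf9 membrane reagent and enriched on streptavidin microbeads. FACS then separated cells into low and high (top ~1%) gates by anti-HA (expression) and streptavidin (reagent binding) fluorescence. Genes were colony-PCR amplified, MiSeq 2 × 250 sequenced and CDR-length filtered. A clone's polyreactivity label is that of its gate of origin.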

| Sequence | polyreactivity (PSR sort gate) |
| --- | --- |
| QVQLVESGGGLVQAGGSLRLSCAASGSTFVQNAMGWYRQAPGKERELVAAISRTGGSTYYADSVKGRFTISRDNAKNTVYLQMKSLIPEDTAVYYCATRPPHYSWPKIIEFGSWGQGSQVTVSS | high polyreactivity |
| QVQLEESGGGLVQAGGSLRLSCAASGRIFYRYAMGWYRQAPGKERELVAAISSGGSTYYADSVKGRFTISRDNAKNTVYLQMNSLKPDDTAVYYCAATWGRGTYYLYYYWGQGTQVTVSS | high polyreactivity |
| HVQLVESGGGLVHAGGSLRLSCAASGAIFWVNAMGWYREAPGKERELVADISRSGANTYYADSVKGRFTISRDNAKNTVYLQMTSLNPEDTAVYYCAKGVFYPWWYVQPEHDYWGQGTQVTVSS | high polyreactivity |
| QVQLVESGGGLVQAGGSLRLSCAASGSTFKYYAMGWYRQAPGKERELVASITRTGSSTYYADSVKGRFTISRDNAKNTVYLQMNSRKPEDTAVYYCNTGPHSVWWHYGYDYWGQGTQVTVSS | high polyreactivity |
| QVQLVESGGGLVQAGGSLRLSCAASGFIFFVNAMGWYRQAPGKEREFVATITGSGGSTYYADSVKGRFTISRDNAKNTVYLQMYSLKPEDTAVYYCNAETYIDLRGKFPVEYDYWGQGTQVTVSS | low polyreactivity |
| QVQLVESGGCLVQAGGSLRLSCAASGLTFGSYGMGWYRQAPGKERELVAAITATGGSTYYADSVKGRFTISRDNAKNTVYLQMNSLKPEDTAVYYCAATRRSKVWLYGYWGQGTQVTVSS | high polyreactivity |
| QVQLQESGGGLVQAGGSLRLSSAASGTIFRFRYMGWHRQAPGKERELVAGINGGTTTYYADSVIGRFTISRDNAKNTVYLQMNSLKPDDTAVYNCAAGASRLTYYDYWGQGTQVTVSS | low polyreactivity |
| QLQLVESGGGLVLAGGSLRLSCAASGYLFQRTAKGCYRQATGKVRELVSTISRGGARTSYAYSVKGRFTISSDNANNTVYLQMNSLKPEDTAVYYCAKSYRKAGGMWSYGYWGQGTQVTVSS | high polyreactivity |
| QVQLVESGGGLDQAGGSLRLSCAASGLIFYYYALGWYRQAPGKERELVAAISSRGSSTYYADSVKGRFTISRDNAKKTVYLQMNSLKPEDTAVYYCAADSVRKYFGYDYWGQGTQVTVSS | high polyreactivity |
| QVQLVESGGGLVQAGGSLRLSCAASGSIYQNAMGWYRQAPGKQRELVAAITSSGGRTYADSVKGRFTISRDNAKNTVYLQMNSLIPEDTAVYYCAKDSTADELNGFDYWGQGTQVTVSS | low polyreactivity |
| QVQLVESGGGLVQAGGSLLLSCSASGRTFAYNAMGLYRQAPGKEREWVASISSSDTSTYYADSVNGRFTISRDNAKNTVYLQMNSLKPVDTAVYYCAADGHPFKGVRYYYWGQGTQVTVSS | low polyreactivity |
| QVQLVESGGGLVQAGGSLRLSCASSGYIFSLSGMGWYRQAPGKERELVAAITGSGGGTYADSVKGRFTISRDNAKNTVYLQMISLKPEDTAVYYCAAGGYRRRFWPIYDYWGQGTQVSVSS | low polyreactivity |
| QVQLVESGGGLVQAGGSLRLTCAASGSTFINYAMGWYRQAPGKERELVAAYADSVKGRFTISRDNAKNTVYLQMNSLKPEDTAVYYCNAVTGEWGQGTQVTVSS | low polyreactivity |
| QVQLVESGGGLVQAGGSLRLSCAASGITFPNYTMGWYRQAPWKERELLAAISYNGGGTYYADSVNGRFTISRYKAKNTVYVQKNSLKPEDTAVYYCAALGLYGDYLRYDYWGQGTQVSVSS | high polyreactivity |
| QVQLVESGGGLVQAGGSLRLSCAASGRIFGYNTMGWYRQAPGKERELVARISYDVDSTYYADSVKGRFTISRDNAKNTVYLQMNSLKPEDTAVYYCNARRSNLGSYIEYFGFDYWGQGTQVTVSS | low polyreactivity |
| QVQLVESGGGLVQAGGSLRLSCAASGRTFTHYAMGWYRQAPGKERELVAAISRSGGTTYYADSVKGRFTISRDNAKSTVYLQMNSLKPEDTAVYYCNAEVVDFELGVFEDYYWAYDYWGQGTQVTVSS | high polyreactivity |

| Sequence | polyreactivity (PSR sort gate) |
| --- | --- |
| QVQLVESAGGLVQAGCSLRLSCAASGSPFGYYAMGWYRQAPGKVRELVAAISRSGVSTYYADSVKGRFTISRDNAKNTFYLQMNSLKPEDTAVYYCDRVRSTPGSYNRFYYWGQGTQVTVSS | high polyreactivity |
| QVQLVESGGGLVQAGGSLRLSCAASGRIFDYYAMGWYRQAPGKERELVAVINRDGSTYYADSVKGRFTISRDNAKNTVYLQMNSLKPEDTAVYYCARDSAWAARGPFTDGAYDSWGQGTQVTVSS | low polyreactivity |
| QVQLVESGGGLVQAGGSLRLSCAASGFTFFDYVMGWYRQAPGKERELVAAISSSGGSTNYADSVKGRFTISRDNAKNTVYLQMNSLKPQDTAVYYCAAEDFWDDVEYWGQGTQVTVSS | low polyreactivity |
| QVQLVESGGGLVQAGGSLRLSCAASGRIFRINGMGWYRQAPGKEREFVAAITSGGGTYYADSVKGRFTISRDNAKNTVYLQMNSLKPEDTAVYYCAAPSYRTRYYYWGQGTQVTVSS | high polyreactivity |
| QVQLVESGGGLVQAGGSLRLSCAASGFTFAQYTMGWYRQAPGKERELVAAIRVGGGSTYYADSVKGRFTISRDNAKNTVYLQMNSLKPEDTAVYYCAKRTYSRKFRGAYNYWGQGTQVTVSS | high polyreactivity |
| QVQLVESGGGLVQAGGSLRLSCPASGRILYLNVLGWYRQEPGKERELVASITVSGGITYYADSVKGRFTISRDNAKNTVYLQMNSLKPEDTAVYYCAVDAYPPFFYFTSVWFSYDYWGQGTQVTVSS | low polyreactivity |
| QVQLVESGGGLVQAGGSLRLSCAASGSTFWLYAMGWYRPAPGKERELVASISSRGGSTYYADSVKGRFTISRDYAKNTVYLQMNSLKPEDTAVYYCAAKDIRYDDDYWGQGTQVTVSS | low polyreactivity |
| QVQLVESGGGLVQAGGSLRLSCAASGRTFPGNAMGWYRQAPGKERELVAAISWSGTRTYYADSVKGRFTISRDNAKHTVYLQMNSLKPEDTAVYYCNVVVKGAWDYYPYDYWGQGTQVTVSS | high polyreactivity |
| QVQLVESGGGLVQAGGSLRLSCAASGFTFYPYVMGWYRQAPGKERELVAAINSGGARTYYADSVKGRFTISRDNAKNTVYLQMNSLKPEDTAVYYCAARTVVGGRIYYYWGQGTQVTVSS | high polyreactivity |
| QVQLVESGGGLVQAGGSLRLSCAASGCIFFQYAMGWYIQAPGKERELVAAISGSGVTTYYADSVKGRFTISRDNAKNTVYLQMNSLKPEDTAVYYCNAALRWKYDWGQGTQVTVSS | low polyreactivity |
| QVQLGESGGGLVQAGGSLRLSCAASGGIFGKYAMGWYRQAPGKERELVAAISGGSRTNYADSVKGRFTISRDNAKNTVYLQMNSLKPEDTAVYYCAARYAYSAQRLYYWGQGTQVTVSS | high polyreactivity |
| QVQLVESGGGLVQAGGSLRLSCAASGFTFYSNAMGWYRQAPGKERELVAAITSSGGSTYYADSVKGRFTISRDNAKNTVYLQMNSLKPEDTAVDYCNVRVGYRRYGYWGQGTQVTVSS | high polyreactivity |
| QVQLVESGGGLVQAGGSLRLSCAASGRIFYYYAMGWYRQAPGKERELVAGIDSGDSTNYADSVKGRFTISRDNAKNTVYLQMNSLKPEDTAVYYCAALHYGGYFSYYPYYYWGQGTQVTVSS | low polyreactivity |
| QVQLVESGGGLVQAGGSLRLSCAASGLIFAFYAMGWYRQAPVKERELVASIDKSGGSTYADSVKGRFTISRDNAKNTVYLQMNSLKQEDTAVYYCAADYSLIDLFYWGQGTQVTVSS | low polyreactivity |
| QVQLVESGGGLVQAGGSLRLSCAASGRIFKYYAMGWYRQAPGTERELVAAITSGGSTYYADSVKGRFTISRDNAKNTVYLQMNSLKPEDTAVYYCNADGYLSYAFDYWGQGTQVTVSS | low polyreactivity |
| QVQLVESGGGLVQAGGSLRLSCAASGFIFRDNAMGWYRPAPGKERELVAAISKSGGRTYYADSVKGRFTISRDNAKNTVYLQMNSLKPEDTAVYYCAKASRYWSLYYWGQGTQVTVSS | high polyreactivity |

Reference: the nanobody polyreactivity screen of Harvey et al. (2022)
